For test [1], the target named is PorN, subunit of the purified PorKN ring (Porphyromonas gingivalis (endogenous in P. gingivalis)). Put plainly: cryo-EM structure; PorKN rings purified from P. gingivalis through the twin strep tag on PorK (Strep-Tactin, 0.5% Triton X-100); single and double rings; whole rings at 7.4 Å (single) and 5.6 Å (double) with 33-fold symmetry; focused refinement of a segment in C1 to 3.2 Å.

In test [2] the target is PorK with a C-terminal twin strep tag (PorK-Strep), subunit of the purified PorKN ring (Porphyromonas gingivalis). Described as above.

Our source for the stoichiometry N values is PMC12421860.

As to “PorN, subunit of the purified PorKN ring (natural protein)”, in test [1], the stoichiometry N (as a rule, a count of units in the complex or per binding partner) is 33.

In turn, “PorK with a C-terminal twin strep tag (PorK-Strep), subunit of the purified PorKN ring (natural protein)” yielded a stoichiometry N in test [2] of 33.
